Patent US20050118148

Assays:
Experiment in all cases: cell_activity
[1] = target: MafA (mouse L-Maf) (Mus musculus) (UniProt Q8CF90); details: HeLa; +/-2.8
MafB (Mus musculus) = MafB (Mus musculus) (UniProt P54841); details: HeLa; +/-10.4
c-Maf (Mus musculus) = c-Maf (Mus musculus) (UniProt P54843); details: HeLa; +/-12.1
c-Maf (Mus musculus), sequence (P54843 whole entry): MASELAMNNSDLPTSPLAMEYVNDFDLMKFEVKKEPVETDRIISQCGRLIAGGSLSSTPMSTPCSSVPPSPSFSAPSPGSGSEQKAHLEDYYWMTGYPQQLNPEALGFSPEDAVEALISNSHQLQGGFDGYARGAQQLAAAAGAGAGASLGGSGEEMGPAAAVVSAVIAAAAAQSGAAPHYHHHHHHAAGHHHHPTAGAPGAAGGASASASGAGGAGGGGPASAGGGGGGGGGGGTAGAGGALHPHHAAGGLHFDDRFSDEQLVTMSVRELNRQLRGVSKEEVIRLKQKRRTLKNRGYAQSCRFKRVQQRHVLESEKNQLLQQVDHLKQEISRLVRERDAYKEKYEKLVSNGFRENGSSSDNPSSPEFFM

MafA (mouse L-Maf) (Mus musculus), sequence (Q8CF90 whole entry): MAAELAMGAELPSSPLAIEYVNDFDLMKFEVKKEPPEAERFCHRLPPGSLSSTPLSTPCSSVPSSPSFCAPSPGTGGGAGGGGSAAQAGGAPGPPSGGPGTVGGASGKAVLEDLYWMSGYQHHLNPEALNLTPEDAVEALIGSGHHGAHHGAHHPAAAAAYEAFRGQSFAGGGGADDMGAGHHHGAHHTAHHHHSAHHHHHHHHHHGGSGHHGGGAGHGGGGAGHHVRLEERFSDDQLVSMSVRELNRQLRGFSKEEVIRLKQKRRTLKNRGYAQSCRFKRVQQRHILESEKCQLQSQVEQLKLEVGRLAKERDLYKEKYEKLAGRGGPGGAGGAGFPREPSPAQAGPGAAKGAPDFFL
MafB (Mus musculus), sequence (P54841 whole entry): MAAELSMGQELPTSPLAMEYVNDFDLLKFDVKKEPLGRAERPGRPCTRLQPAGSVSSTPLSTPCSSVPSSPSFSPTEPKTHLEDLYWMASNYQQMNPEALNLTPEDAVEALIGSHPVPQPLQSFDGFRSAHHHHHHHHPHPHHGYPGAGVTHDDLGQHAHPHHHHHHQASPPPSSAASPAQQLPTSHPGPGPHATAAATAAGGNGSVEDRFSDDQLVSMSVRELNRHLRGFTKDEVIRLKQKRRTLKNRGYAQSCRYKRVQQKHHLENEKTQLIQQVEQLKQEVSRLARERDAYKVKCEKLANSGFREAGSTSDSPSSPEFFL

rat insulin II promoter -238/+2 (-238 WT LUC)
activity (relative luciferase (printed as %)) [1]: 13.2 | activity (relative luciferase (printed as %)) (MafB (Mus musculus)): 23.9 | activity (relative luciferase (printed as %)) (c-Maf (Mus musculus)): 28
